Test results as given in article PMC10529061.

Biological target: His6-tagged CHIP (C-terminus of Hsc70-interacting protein) (UniProt Q9UNE7)
Test: BLI

Chain of UniProt Q9UNE7 (Q9UNE7 whole entry): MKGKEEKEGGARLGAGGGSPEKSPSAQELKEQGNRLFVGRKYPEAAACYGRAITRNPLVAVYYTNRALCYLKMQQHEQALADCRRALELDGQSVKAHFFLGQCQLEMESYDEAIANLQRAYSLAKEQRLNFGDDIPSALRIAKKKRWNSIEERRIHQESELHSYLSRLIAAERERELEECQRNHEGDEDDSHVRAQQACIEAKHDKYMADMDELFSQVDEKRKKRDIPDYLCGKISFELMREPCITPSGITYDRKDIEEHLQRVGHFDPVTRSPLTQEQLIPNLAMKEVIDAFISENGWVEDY

Kd: 6.28 µM
Substance: E2 (UbcH5b), wild type (from UniProt P62837 1-147) (enzyme; other documents disagree on this pair)
